Results as given in PMC7081427.

B1: BCL-2 (structured_DNA)
DNA: GGGCGCGGGAGGAATTGGGCGGG
B2: dG10 (ssDNA)
DNA: GGGGGGGGGG

Key:
Experiment in all cases: EMSA
[1] = biological target: RRM-RGG F/A3 (UniProt P19338 267-709, F663A;F676A;F684A)
[2] = biological target: T1, nucleolin RRM (UniProt P19338 267-645)
[3] = biological target: nucleolin RRM-RGG (UniProt P19338 267-709)
[4] = biological target: RRM-RGG F/A2 (UniProt P19338 267-709, F663A;F676A)
[5] = biological target: RRM-RGG F/A1 (UniProt P19338 267-709, F663A)
[6] = biological target: T1, nucleolin RRM; remark: listed apart in the source

T1 sequence (P19338 267-645): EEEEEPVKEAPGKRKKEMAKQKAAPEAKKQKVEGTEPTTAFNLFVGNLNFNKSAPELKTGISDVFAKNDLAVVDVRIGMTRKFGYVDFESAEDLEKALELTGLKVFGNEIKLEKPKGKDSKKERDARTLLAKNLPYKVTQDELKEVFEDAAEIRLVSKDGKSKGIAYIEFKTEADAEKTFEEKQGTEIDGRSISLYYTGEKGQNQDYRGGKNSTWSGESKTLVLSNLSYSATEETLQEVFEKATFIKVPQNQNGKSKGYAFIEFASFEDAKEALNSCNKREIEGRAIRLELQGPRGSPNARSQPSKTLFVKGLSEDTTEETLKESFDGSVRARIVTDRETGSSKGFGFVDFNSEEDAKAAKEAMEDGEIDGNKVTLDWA
Sequence of RRM-RGG F/A3 (P19338 267-709 F663A/F676A/F684A): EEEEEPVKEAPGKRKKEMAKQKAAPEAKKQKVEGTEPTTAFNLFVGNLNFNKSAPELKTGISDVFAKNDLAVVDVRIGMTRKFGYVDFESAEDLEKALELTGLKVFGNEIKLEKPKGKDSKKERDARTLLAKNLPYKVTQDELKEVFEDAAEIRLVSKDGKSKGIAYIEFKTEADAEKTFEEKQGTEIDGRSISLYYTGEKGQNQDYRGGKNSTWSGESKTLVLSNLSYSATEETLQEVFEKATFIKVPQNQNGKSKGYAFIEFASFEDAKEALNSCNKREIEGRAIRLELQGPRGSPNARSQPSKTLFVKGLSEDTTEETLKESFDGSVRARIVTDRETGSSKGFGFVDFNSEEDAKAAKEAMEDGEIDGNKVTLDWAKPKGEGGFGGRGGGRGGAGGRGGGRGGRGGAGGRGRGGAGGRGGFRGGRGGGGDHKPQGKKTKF
Sequence of RRM-RGG F/A1 (P19338 267-709 F663A): as the sequence (P19338 267-709 F663A/F676A/F684A) above, with A410F, A418F counted along it
Sequence of nucleolin RRM-RGG (P19338 267-709): as the sequence (P19338 267-709 F663A/F676A/F684A) above, with A397F, A410F, A418F counted along it
Sequence of RRM-RGG F/A2 (P19338 267-709 F663A/F676A): as the sequence (P19338 267-709 F663A/F676A/F684A) above, with A418F counted along it

Row | Binder | Kd [1] [nM] | Kd [2] [nM] | Kd [3] [nM] | Kd [4] [nM] | Kd [5] [nM] | binding result [6]
1 | B1 | 172 ± 9.1 | 73.6 ± 7.1 | 79.6 ± 4 | 71.8 ± 6.9 | 75.5 ± 9.5 | 
2 | B2 |  |  |  |  |  | binds
